Reference: patent US20090285799A1 (CSL, published 2009)
Positions count from the first letter of the chain named. Blank lines part the entries; values can stand above or below the binder they belong to.

What was measured:
[1] = target: T1, human IL-13Rα1 on normal human dermal fibroblast (NHDF) cells (human, UniProt P78552 27-427); test: cell-based or functional assay
T1 sequence: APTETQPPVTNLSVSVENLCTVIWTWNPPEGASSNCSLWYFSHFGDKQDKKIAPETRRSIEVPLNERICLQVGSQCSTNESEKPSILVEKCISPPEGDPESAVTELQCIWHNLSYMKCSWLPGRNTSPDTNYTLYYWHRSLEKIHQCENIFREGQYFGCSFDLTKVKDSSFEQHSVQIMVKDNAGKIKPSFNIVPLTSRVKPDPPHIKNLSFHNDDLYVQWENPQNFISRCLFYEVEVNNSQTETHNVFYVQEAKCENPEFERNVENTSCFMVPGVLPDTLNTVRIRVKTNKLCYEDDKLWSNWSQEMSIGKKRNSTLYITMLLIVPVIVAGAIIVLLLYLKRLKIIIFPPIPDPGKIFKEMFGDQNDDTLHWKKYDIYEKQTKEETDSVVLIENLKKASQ

[2] = target: T2, hIL-13Rα1.ECR (N-terminal FLAG-tagged fusion protein of the extracellular region of human IL-13Rα1) (human, UniProt P78552 29-343); test: KINEXA kinetic exclusion assay, full-length IgG4
T2 construct: also called human IL-13Rα1.ECR; hIL-13Rα1 extracellular domain
T2 sequence: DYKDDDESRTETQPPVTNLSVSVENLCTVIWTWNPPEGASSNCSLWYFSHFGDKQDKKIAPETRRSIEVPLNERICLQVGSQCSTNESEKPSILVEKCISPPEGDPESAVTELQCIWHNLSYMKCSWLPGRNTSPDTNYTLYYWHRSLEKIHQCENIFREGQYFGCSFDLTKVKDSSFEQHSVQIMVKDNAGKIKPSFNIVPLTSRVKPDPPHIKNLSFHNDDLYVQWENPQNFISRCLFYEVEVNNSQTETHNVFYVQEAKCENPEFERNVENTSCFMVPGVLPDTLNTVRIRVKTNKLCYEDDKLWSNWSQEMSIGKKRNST

[3] = target: T3, IL-13Rα1 on whole blood cells or PBMCs (TARC release assay); test: cell-based or functional assay
T3 sequence (P78552 whole entry, species assumed, looked up): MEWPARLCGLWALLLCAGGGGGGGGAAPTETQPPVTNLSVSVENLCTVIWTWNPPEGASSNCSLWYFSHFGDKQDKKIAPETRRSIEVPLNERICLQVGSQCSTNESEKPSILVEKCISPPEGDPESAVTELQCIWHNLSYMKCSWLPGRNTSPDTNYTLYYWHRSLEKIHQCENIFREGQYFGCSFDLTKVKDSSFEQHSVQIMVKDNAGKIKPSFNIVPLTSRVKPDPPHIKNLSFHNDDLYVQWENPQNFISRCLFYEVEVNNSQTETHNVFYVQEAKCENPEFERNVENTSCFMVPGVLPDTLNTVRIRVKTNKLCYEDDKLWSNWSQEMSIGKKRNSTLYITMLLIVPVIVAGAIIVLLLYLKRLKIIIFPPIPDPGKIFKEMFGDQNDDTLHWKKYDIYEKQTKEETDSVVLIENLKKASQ

[4] = target: T1, human IL-13Rα1 on normal human dermal …; test: cell-based or functional assay; remark: listed apart in the source
[5] = target: T2, hIL-13Rα1.ECR (N-terminal FLAG-tagged …); test: ELISA on plate-bound hIL-13Rα1.ECR
[6] = target: T2, hIL-13Rα1.ECR (N-terminal FLAG-tagged …); test: BIACORE SPR, hIL-13Rα1.ECR immobilized on CM5 chip, antibody as analyte, bivalent model
Method: BIACORE-Based Studies. Human IL-13Rα1.ECR (40 μg/ml in 20 mM Sodium Acetate, pH 4.2) of Example 1 was immobilized to a sensorchip (CM5, Biosensor, Sweden) using standard NHS/EDC chemistry according to the manufacturer's instructions at a set immobilization value, for example, 1000RU. Ethanolamine (1.0 M) pH 8.0 was used to quench residual active esters post hIL-13Rα1.ECR immobilization.
Analysis of binding of antibody (concentration range of 1.4 nM to 150 nM, two-fold dilutions) to the immobilized hIL-13Rα1. ECR was performed in duplicate. Sensorgrams generated were fitted to a bivalent ligand binding model to simultaneously derive association (kₐ) and dissociation (kd) rates and used to determine binding affinity (KD, Biaevaluation software, BIACORE™, Sweden).

[7] = target: T2, hIL-13Rα1.ECR (N-terminal FLAG-tagged …); test: BIACORE SPR, chip-bound hIL-13Rα1 extracellular domain, Fab format

B1: 8B4-IgG4 (antibody, V domains shown)
VH: EVQVLESGGGLVQPGGSLRLSCAASGFTFSNYAMTWVRQAPGKGLEWVSTISGRGYSIYYADSVKGRFTISRDNSKNTVYLQMNSLRAEDTAVYYCAKEEGHWYFDVWGRGTLVTVSS
VL: EIVLTQSPDFQSVTPKEKVTITCRASQSIGSSLHWYQQKPDQSPKLLIKYASQSFSGVPSRFSGSGSGTDFTLTINSLEAEDAAAYYCHQSSSLPYTFGQGTKLEIK
notes: Recombinant full-length antibody of subclass IgG4 with kappa light chain (Lonza pCONGAMMA4/pCONKAPPA vectors), made in 293 cells
inhibition of eotaxin release from NHDF cells upon stimulation with IL-13 (IC50) [1]: ~1 µg/mL | Kd [2]: 0.68 nM

B2: 8B4 (antibody, V domains shown)
VH: B1 VH
VL: B1 VL
notes: Human monoclonal antibody purified from a hybridoma of HuMAb transgenic mice; also called PTA-6934
NHDF IL-13-induced STAT6 phosphorylation (EC50) [1]: ~2.9 µg/mL | IL-13-stimulated TARC release in whole blood or PBMCs (IC50) [3]: ~2.6 µg/mL | NHDF cells IL-13 Eotaxin release (IC50) [on average] [4]: 1 µg/mL | Kd [5]: 0.267 nM | Kd [6]: 4.6 nM

B3: 8B4-74C (eotaxin assay) (antibody, V domains shown)
VH: B1 VH
VL: B1 VL with H89M, Q90S, S92L, S93G
inhibition of eotaxin release from NHDF cells upon stimulation with IL-13 (IC50) [1]: 0.1 µg/mL

B4: 8B4 (Fab) (Fab, V domains shown)
VH: B1 VH
VL: B1 VL
notes: Fab format from vector pFab3d
Kd [7]: 2.15 nM

B6: 8B4-78M (optimized antibody, eotaxin assay) (antibody, V domains shown)
VH: B1 VH
VL: B1 VL with H89M, Q90S, S92M, S93G
inhibition of eotaxin release from NHDF cells upon stimulation with IL-13 (IC50) [1]: ~0.1 µg/mL

B7: 8B4-82 (eotaxin assay) (antibody, V domains shown)
VH: B1 VH
VL: B1 VL with H89A, Q90S, S92R, S93G
inhibition of eotaxin release from NHDF cells upon stimulation with IL-13 (IC50) [1]: 1.31 µg/mL

B8: 8B4-36 (eotaxin assay) (antibody, V domains shown)
VH: B1 VH
VL: B1 VL with H89V, Q90S, S92W, S93G
inhibition of eotaxin release from NHDF cells upon stimulation with IL-13 (IC50) [1]: 0.17 µg/mL

B11: 6C11 (antibody, V domains shown)
VH: B1 VH with S30N, M34L, Y104F
VL: B1 VL
notes: Human monoclonal antibody purified from a hybridoma of HuMAb transgenic mice; also called PTA-6930
NHDF IL-13-induced STAT6 phosphorylation (EC50) [1]: 3.8 µg/mL | IL-13-stimulated TARC release in whole blood or PBMCs (IC50) [3]: 2.5 µg/mL | NHDF cells IL-13 Eotaxin release (IC50) [on average] [4]: 9.7 µg/mL | Kd [5]: 0.087 nM | Kd [6]: 2.1 nM

B14: 8B4-80C (Fab) (Fab, V domains shown)
VH: B1 VH
VL: B1 VL with H89M, Q90S, S92W, S93G
notes: Fab format; only CDR3s were mutated
Kd [7]: 0.25 nM

B16: 8B4-18C (Fab) (Fab, V domains shown)
VH: B1 VH
VL: B1 VL with H89M, Q90N, S92L, S93G
notes: as for B14
Kd [7]: 0.085 nM

Continued, values first:

inhibition of eotaxin release from NHDF cells upon stimulation with IL-13 (IC50) [1]: 0.75 µg/mL
B5: 8B4-21C (eotaxin assay) (antibody, V domains shown)
VH: B1 VH
VL: B1 VL with H89K, Q90S, S92A, S93G

Kd [7]: 0.073 nM
B9: 8B4-82 (Fab) (Fab, V domains shown)
VH: B1 VH
VL: B1 VL with H89A, Q90S, S92R, S93G
notes: as for B14

Kd [2]: 0.038 nM
B10: 8B4-78M-IgG4 (antibody, V domains shown)
VH: B1 VH
VL: B1 VL with H89M, Q90S, S92M, S93G
notes: Full-length IgG4, kappa

Kd [2]: 0.051 nM
B12: 8B4-18C-IgG4 (antibody, V domains shown)
VH: B1 VH
VL: B1 VL with H89M, Q90N, S92L, S93G
notes: Full-length IgG4, kappa

Kd [7]: 0.045 nM
B13: 8B4-74C (Fab) (Fab, V domains shown)
VH: B1 VH
VL: B1 VL with H89M, Q90S, S92L, S93G
notes: as for B14

Kd [7]: 0.049 nM
B15: 8B4-78M (Fab) (Fab, V domains shown)
VH: B1 VH
VL: B1 VL with H89M, Q90S, S92M, S93G
notes: as for B14

Kd [7]: 0.085 nM
B17: 8B4-36 (Fab) (Fab, V domains shown)
VH: B1 VH
VL: B1 VL with H89V, Q90S, S92W, S93G
notes: as for B14

Kd [7]: 0.17 nM
B18: 8B4-21C (Fab) (Fab, V domains shown)
VH: B1 VH
VL: B1 VL with H89K, Q90S, S92A, S93G
notes: as for B14

NHDF IL-13-induced STAT6 phosphorylation (EC50) [1]: 7 µg/mL | NHDF cells IL-13 Eotaxin release (IC50) [on average] [4]: 3.5 µg/mL | Kd [5]: 0.36 nM | Kd [6]: 16.5 nM
B19: 2B6 (antibody, V domains shown)
VH: QVQLVESGGGVVQPGRSLRLSCAASGFTFSYYGMHWVRQAPGKGLEWVAFIWYDGSNKYYEDSVKGRFTISRDNSKNTLYLQMNSLRAEDTAVYYCARVAAAGAVEYFQHWGQGTLVTVSS
VL: AIQLTQSPSSLSASVGDRVTITCRASQVISSVLAWYQQKSGKGPKLLIYDASSLESGVPSRFSGSGSGTDFTLTISSLQPEDFATYYCQQFNSYPLTFGGGTKVEIK
notes: Human monoclonal antibody purified from a hybridoma of HuMAb transgenic mice; also called PTA-6932; 2136
